In paper PMC6411836 one finds percent co-depleted data, which are given here for two substances.

The target in experiment [1] is SLX1 endogenous in Xenopus egg extract (Xenopus laevis (endogenous in Xenopus egg extract)) (UniProt Q0IH86). The experiment can be described thus: co-depletion by immunodepletion.
Experiment [2] addresses SLX4 endogenous in Xenopus egg extract (Xenopus laevis (endogenous in Xenopus egg extract)). Briefly: co-depletion by immunodepletion.

Chain of UniProt Q0IH86 (Q0IH86 whole entry): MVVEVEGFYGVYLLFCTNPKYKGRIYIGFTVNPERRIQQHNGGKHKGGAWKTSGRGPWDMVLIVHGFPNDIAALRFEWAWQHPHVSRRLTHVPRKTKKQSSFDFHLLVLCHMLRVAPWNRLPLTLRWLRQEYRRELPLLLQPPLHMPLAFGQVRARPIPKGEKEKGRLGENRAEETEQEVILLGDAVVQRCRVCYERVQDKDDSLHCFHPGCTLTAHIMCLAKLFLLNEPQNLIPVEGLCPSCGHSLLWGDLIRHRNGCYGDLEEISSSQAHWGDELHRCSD

With “SLX4 endogenous in Xenopus egg extract (natural protein)”, in experiment [1], the percent co-depleted came out at 90%.

For “XPF-ERCC1 endogenous in Xenopus egg extract (complex)”, the percent co-depleted in experiment [1] and in experiment [2] was 50% in each case.
